This passage reports Kd results from publication PMC11514473, “The transition state for coupled folding and binding of a disordered DNA binding domain resembles the unbound state” (Nucleic Acids Research, 2024).

For series [1], the target named is T1, CREB 285bZIP wild type (pseudo-WT, Cys to Ser) (human, UniProt P16220-1 285-339, C300S;C310S;C337S).
T1 sequence: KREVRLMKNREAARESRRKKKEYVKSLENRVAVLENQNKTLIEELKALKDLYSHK
Description: stopped-flow fluorescence (koff/kon); koff 2.531 s-1; kon 6.7 nM-1 s-1; 10 mM Mg2+; 10 mM MES pH 6.5, 150 mM NaCl, 10 mM MgCl2, 0.05% Tween-20, 25 C; NMR: 10 mM Tris-d11, 150 mM NaCl, 10 mM MgCl2, 1 mM NaN3, 5% D2O (NOE at 25 C). To be noted: protein: recombinant; tags: extra N-terminal Gly after TEV cleavage; His6-GB1 removed; chain copies: 2; label: 5' Alexa Fluor 488; hairpin (self-annealing, 11 bp stem, CCCC loop).

The target of a further series is T2, 285bZIP E306G (human, UniProt P16220-1 285-339, C300S;C310S;C337S;E306G).
T2 sequence: T1 sequence with E22G
Description: stopped-flow fluorescence (koff/kon); 10 mM Mg2+; 10 mM MES pH 6.5, 150 mM NaCl, 10 mM MgCl2, 0.05% Tween-20, 25 C; NMR: 10 mM Tris-d11, 150 mM NaCl, 10 mM MgCl2, 1 mM NaN3, 5% D2O (NOE at 25 C). To be noted: protein: recombinant; tags: extra N-terminal Gly; chain copies: 2; label: 5' Alexa Fluor 488; hairpin (self-annealing, 11 bp stem, CCCC loop).

Another series addresses T3, 285bZIP K309A (human, UniProt P16220-1 285-339, C300S;C310S;C337S;K309A).
T3 sequence: T1 sequence with K25A
The description is as above. The conditions noted are these: protein: recombinant; tags: extra N-terminal Gly; chain copies: 2; label: 5' Alexa Fluor 488; hairpin (self-annealing, 11 bp stem, CCCC loop).

The next series deals with T4, 285bZIP E287G (human, UniProt P16220-1 285-339, C300S;C310S;C337S;E287G).
T4 sequence: T1 sequence with E3G
The series is described as above. To be noted: protein: recombinant; tags: extra N-terminal Gly; chain copies: 2; label: 5' Alexa Fluor 488; hairpin (self-annealing, 11 bp stem, CCCC loop).

The next series deals with T5, 285bZIP E306A (human, UniProt P16220-1 285-339, C300S;C310S;C337S;E306A).
T5 sequence: T1 sequence with E22A
The series is described as above. To be noted: protein: recombinant; tags: extra N-terminal Gly; chain copies: 2; label: 5' Alexa Fluor 488; hairpin (self-annealing, 11 bp stem, CCCC loop).

For another series, the target named is T6, 285bZIP E299G/E306G (human, UniProt P16220-1 285-339, C300S;C310S;C337S;E299G;E306G).
T6 sequence: T1 sequence with E15G, E22G
The description is as above. The conditions noted are these: protein: recombinant; tags: extra N-terminal Gly; chain copies: 2; label: 5' Alexa Fluor 488; hairpin (self-annealing, 11 bp stem, CCCC loop).

Another series addresses T7, 285bZIP E299G (human, UniProt P16220-1 285-339, C300S;C310S;C337S;E299G).
T7 sequence: T1 sequence with E15G
Described as above. To be noted: protein: recombinant; tags: extra N-terminal Gly; chain copies: 2; label: 5' Alexa Fluor 488; hairpin (self-annealing, 11 bp stem, CCCC loop).

The target in the next series is T8, 285bZIP M291G (human, UniProt P16220-1 285-339, C300S;C310S;C337S;M291G).
T8 sequence: T1 sequence with M7G
The series is described as above. To be noted: protein: recombinant; tags: extra N-terminal Gly; chain copies: 2; label: 5' Alexa Fluor 488; hairpin (self-annealing, 11 bp stem, CCCC loop).

The target of a further series is T9, 285bZIP E299A (human, UniProt P16220-1 285-339, C300S;C310S;C337S;E299A).
T9 sequence: T1 sequence with E15A
Described as above. To be noted: protein: recombinant; tags: extra N-terminal Gly; chain copies: 2; label: 5' Alexa Fluor 488; hairpin (self-annealing, 11 bp stem, CCCC loop).

In series [2] the target is T1, CREB 285bZIP wild type (pseudo-WT, Cys …). Description: stopped-flow fluorescence (koff/kon); koff 2.44 s-1 averaged over competitor concentrations; 10 mM Mg2+; 10 mM MES pH 6.5, 150 mM NaCl, 10 mM MgCl2, 0.05% Tween-20, 25 C; NMR: 10 mM Tris-d11, 150 mM NaCl, 10 mM MgCl2, 1 mM NaN3, 5% D2O (NOE at 25 C). The conditions noted are these: protein: recombinant; tags: extra N-terminal Gly after TEV cleavage; His6-GB1 removed; chain copies: 2; label: 5' Alexa Fluor 488; hairpin (self-annealing, 11 bp stem, CCCC loop).

Where a chain is given by its changes, count along the chain named.

For the molecule CCTGACGTCAGCCCCCTGACGTCAGG (structured_DNA) [AlexaFluor488-CREh], the dissociation constant Kd (as a rule, the concentration at which binding is half-saturated) in series [1] was 0.38 ± 0.03 nM; in the series with 285bZIP E306G it was 3.9 ± 0.2 nM; in the series with 285bZIP K309A, 2.12 ± 0.08 nM; in the series with 285bZIP E287G, 4.6 ± 0.6 nM; with 285bZIP E306A, 0.139 ± 0.012 nM; with 285bZIP E299G/E306G it was 54 ± 4 nM. The dissociation constant Kd with 285bZIP E299G is 2.72 ± 0.15 nM; with 285bZIP M291G, 5.2 ± 0.7 nM; with 285bZIP E299A, 0.0711 ± 0.0011 nM; in [2], 0.36 ± 0.04 nM.
